Experimental data taken from patent publication US20260258111A1.

Molecular target: WT
Assay: flow cytometry of CHO cells displaying the WT truncated domain, stained with labelled TRAIL; panel stands above the 2 ug/mL panel, its own TRAIL concentration is not labelled

WT, sequence (chain, as listed by the source limits assumed, form in doubt): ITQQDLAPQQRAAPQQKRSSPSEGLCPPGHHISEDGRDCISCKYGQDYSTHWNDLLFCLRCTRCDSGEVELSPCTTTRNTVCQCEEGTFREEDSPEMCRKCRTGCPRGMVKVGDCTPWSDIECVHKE

- APC-A, SSC-A subset (percent of cells in the gate): 3.84%
Substance: APC-TRAIL (from UniProt P50591 114-281) (ligand)
